Experimental data as given in patent US7416847, “In vitro peptide or protein expression library” (Isogenica Limited).

T1: P2 A protein (replication initiation protein A), His6-tagged (Bacteriophage P2, UniProt Q06419 Q06419:1-761)
T1 sequence: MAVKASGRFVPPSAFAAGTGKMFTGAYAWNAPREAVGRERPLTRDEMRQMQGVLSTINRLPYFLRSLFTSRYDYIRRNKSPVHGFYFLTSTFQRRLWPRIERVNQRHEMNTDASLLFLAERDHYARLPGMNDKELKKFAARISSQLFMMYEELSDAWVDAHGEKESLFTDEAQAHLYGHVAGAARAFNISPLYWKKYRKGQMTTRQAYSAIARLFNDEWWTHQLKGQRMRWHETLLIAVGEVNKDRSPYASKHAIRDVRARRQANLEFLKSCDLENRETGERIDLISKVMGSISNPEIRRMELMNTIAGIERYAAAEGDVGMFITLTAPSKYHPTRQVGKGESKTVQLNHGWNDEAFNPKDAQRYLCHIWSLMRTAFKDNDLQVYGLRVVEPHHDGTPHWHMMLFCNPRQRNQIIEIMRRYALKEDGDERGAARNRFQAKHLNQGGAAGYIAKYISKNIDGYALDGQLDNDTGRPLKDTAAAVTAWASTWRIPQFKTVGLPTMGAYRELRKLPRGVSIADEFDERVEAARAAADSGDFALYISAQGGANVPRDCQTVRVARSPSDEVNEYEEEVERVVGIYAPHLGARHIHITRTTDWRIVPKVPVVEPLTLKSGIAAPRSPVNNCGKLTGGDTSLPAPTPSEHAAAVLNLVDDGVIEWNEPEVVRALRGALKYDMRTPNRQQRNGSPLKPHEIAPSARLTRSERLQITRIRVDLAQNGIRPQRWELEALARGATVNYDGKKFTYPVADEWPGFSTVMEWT

B1: pEE711 plasmid encoding His::A (contains P2 A attachment site) (dsDNA)
DNA 1: AGCGGCATCGCCGCGCCTCGGAGTCCTGTC
DNA 2: GACAGGACTCCGAGGCGCGGCGATGCCGCT
B2: pEN24 plasmid encoding His::A (contains P2 A attachment site) (dsDNA)
DNA 1: AGCGGCATCGCCGCGCCTCGGAGTCCTGTC
DNA 2: GACAGGACTCCGAGGCGCGGCGATGCCGCT

What was measured:
[1] = target: T1, P2 A protein (replication initiation …); assay: pulldown; Ni-NTA selection of His::A plasmid over A plasmid pEE709; cis covalent binding; whole plasmid assayed, listed sequence is only the attachment region; 50 mM Na-phosphate pH 8.0, 300 mM NaCl, 20 mM imidazole; settings: tags: N-terminal His6 (expressed from pEE711 or pEN24 in E. coli T7 S30 extract, Promega)
Method: One ug of DNA of the pEE709 and the pEE711 plasmids respectively was added to the coupled transcription/translation extract kit (20 ul S30 premix, 5 ul aminoacid mix and 15 ul *E. Coli* T7 S30 extract system for circular DNA, Promega, USA). The transcription/translation was allowed to proceed for 60 minutes at 37° C. The extract mixture was diluted 12-fold in washing buffer (Qiagen; […] Na-phosphate pH 8.0, 300 mM NaCl, 20 mM imidazole, 1 mM PMSF) and subjected to Ni selection by addition to a Ni-NTA spin column (Qiagen, Germany) equilibrated with Buffer 1 (50 mM Na-phosphate pH 8.0, 300 mM NaCl, 20 mM imidazole) under non-denaturing conditions. […] High efficiency competent cells JM109 (Promega, USA) were transformed with a portion of the eluant and scored for ampicillin resistant colonies. […]
To determine the distribution (ratio) of the plasmid types in the eluant, the presence of plasmids was measured by transformation of strain JM 109 (Promega) for amp-resistance. Colonies were picked and analysed for their plasmid type (differentiated by size) after plasmid extraction followed by agarose gel electrophoresis. The ratio of pEE711 (His::A) to pEE709 (A) in the absence of Ni-column selection was also determined.

[2] = target: T1, P2 A protein (replication initiation …); assay: pulldown; Ni-NTA selection of His::A plasmid over A plasmid pEN21; no enrichment when S30 extract omitted; whole plasmid assayed, listed sequence is only the attachment region; 1 mM imidazole wash; settings: tags: N-terminal His6 (expressed from pEE711 or pEN24 in E. coli T7 S30 extract, Promega)
From the text: In the second experiment two new plasmid constructs pEN21 (an A gene construct with an amp resistance gene, see FIG. 1) and pEN24 (a His::A gene construct with a tag of six histidine residues and a kanamycin resistance gene, see FIG. 1) were subjected to the same type of experiment as in experiment 1 above, with the modifications indicated in the materials and methods section below. By employing this differential antibiotic resistance it is possible to score for the individual plasmid types directly as bacterial colonies.
Materials and Methods pEN21 and 24 are derivatives of pET21a and pET24a (Novagen Inc. USA). The pET21a and pET24a vectors differ only by their selectable marker (ampicillin and kanamycin resistance respectively). The pEN21 and pEN24 were constructed by restriction cutting of pEE709 and pEE711 with XbaI and BlpI which cuts out the A gene and flanking regions. pET21a and pET24a were cut with the same restriction enzymes. The A-fragments and new vector fragments were isolated from an agarose gel after electrophoresis by Spin-Bind columns (FMC). […] The plasmids were incubated for 30 minutes in the S30 extracts and the plasmid types were scored by differential antibiotic resistance using ampicillin (pEN21) and kanamycin (pEN24) plates after transformation of E. coli strain BK 2118 by electroporation. […]

Binder | binding signal [1] [fold enrichment] | binding signal [2] [fold enrichment]
B1 | 13.3 | –
B2 | – | 6.8
